The values below come from patent US20040054158A1.

In test [1] the target is B7 molecules on WEHI 231 cells (B7-1 and B7-2). In words: flow cytometry, titered staining of WEHI 231 cells.
Test [2] has the same target. In words: flow cytometry, titered staining of WEHI 231 cells; estimate from detectable concentrations.

Chain of mCTLA4-mIgG2am (P09793 36-161): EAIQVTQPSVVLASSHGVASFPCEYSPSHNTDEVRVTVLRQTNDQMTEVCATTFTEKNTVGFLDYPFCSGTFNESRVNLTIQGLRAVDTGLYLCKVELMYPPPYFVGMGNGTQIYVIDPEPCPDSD

In turn, “mCTLA4-mIgG2am (from UniProt P09793 36-161) (Fc fusion)” returned a concentration at which staining was clearly detectable in test [1] of 8 ng/mL. The fold greater binding affinity than mICOS-mIgG2am binding to GL50 on WEHI cells in test [2] was greater than 100 fold.
